Patent publication US20230151111A1 (AKESO BIOPHARMA, published 2023)

Assays:
human PD-1-mFc-biotin [1] = target: T1, human PD-1-mFc-biotin (human, UniProt Q15116 25-170, limits assumed, biotin label, site not stated); assay: competitive ELISA, competitor coated PD-L1-mFc; antibody 5 ug/mL diluted 1:3
Method: (§1) After incubation, the microplate was blocked with a PBS solution containing 1% BSA at 37° C. for 2 h. After blocking, the plate was washed three times and dried. The antibody was serially diluted to 7 concentrations in a gradient ratio of 1:3 on a dilution plate with 10 μg/mL as the starting concentration, and a blank control was set. […] Then the mixture after reaction was added to the coated microplate, and the microplate was incubated for at 37° C. for 30 min. After incubation, the plate was washed three times with PBST and dried. SA-HRP (KPL, 14-30-00) working solution was added, and the plate was incubated at 37° C. for 30 min. After incubation, the plate was washed four times and patted dry. Then TMB (Neogen, 308177) was added in the dark for chromogenesis for 5 min, and a stop solution was added to terminate chromogenic reaction. Then the microplate was put into a microplate reader immediately, and the OD value of each well in the microplate was read at 450 nm. The data were analyzed and processed by SoftMax Pro 6.2.1.

PD-1-mFc = target: T2, PD-1-mFc (human, UniProt Q15116 25-170, limits assumed); assay: BLI (Fortebio), antibody on AHC sensor, PD-1-mFc 0.6-50 nM, 37 C
T2 construct: also called human PD-1-mFc
Method: The sample dilution buffer was PBST, 0.1% BSA, pH 7.4. The antibody was immobilized on an AHC sensor at a concentration of 5 μg/mL with an immobilization height of about 0.4 nm. The sensor was equilibrated in a buffer for 60 s, and the binding of the immobilized antibody on the sensor to the antigen PD-1-mFc at concentrations of 0.6-50 nM (three-fold dilution) was determined in 120 s. The protein was dissociated in the buffer for 180 s. The detection temperature was 37° C., the detection frequency was 0.3 Hz, and the sample plate shaking rate was 1000 rpm. The data were analyzed by 1:1 model fitting to obtain affinity constants.

human NT5E(1-552)-his = target: T3, human NT5E(1-552)-his (human, UniProt P21589 27-552); assay: BLI (Fortebio), antibody on Protein A sensor, NT5E(1-552)-his 3.125-200 nM, 37 C
T3 construct: The entry starts at Met 1
T3 sequence: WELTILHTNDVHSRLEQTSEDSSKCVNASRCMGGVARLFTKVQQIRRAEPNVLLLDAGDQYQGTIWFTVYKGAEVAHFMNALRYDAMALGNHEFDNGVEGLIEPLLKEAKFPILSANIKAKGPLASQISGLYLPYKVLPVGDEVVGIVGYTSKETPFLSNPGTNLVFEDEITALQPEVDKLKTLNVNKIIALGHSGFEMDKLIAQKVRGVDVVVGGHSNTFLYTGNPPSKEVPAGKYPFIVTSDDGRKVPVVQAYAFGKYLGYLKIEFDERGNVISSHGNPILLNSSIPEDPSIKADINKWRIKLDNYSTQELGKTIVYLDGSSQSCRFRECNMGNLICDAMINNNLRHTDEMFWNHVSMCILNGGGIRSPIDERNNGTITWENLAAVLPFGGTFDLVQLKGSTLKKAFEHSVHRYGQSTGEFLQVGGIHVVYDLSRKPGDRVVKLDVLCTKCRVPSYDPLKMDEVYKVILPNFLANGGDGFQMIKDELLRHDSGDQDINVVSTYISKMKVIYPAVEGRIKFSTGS
Method: The sample dilution buffer was PBST, pH 7.4. The antibody was immobilized on a Protein A sensor at a concentration of 5 μg/mL with the immobilization time of about 15 s. […] The protein was dissociated in the buffer for 600 s. The sensor was refreshed with 10 mM Gly solution, pH 1.5. The detection temperature was 37° C., the detection frequency was 0.6 Hz, and the sample plate shaking rate was 1000 rpm. The data were analyzed by 1:1 model fitting to obtain affinity constants.

human PD-1-mFc-biotin [2] = target: T1, human PD-1-mFc-biotin; assay: competitive ELISA, competitor coated PD-L1-mFc; antibody 5 ug/mL
Method: as §1

T2 sequence (Q15116 other isoform, or with tags, fused parts or gaps limits assumed): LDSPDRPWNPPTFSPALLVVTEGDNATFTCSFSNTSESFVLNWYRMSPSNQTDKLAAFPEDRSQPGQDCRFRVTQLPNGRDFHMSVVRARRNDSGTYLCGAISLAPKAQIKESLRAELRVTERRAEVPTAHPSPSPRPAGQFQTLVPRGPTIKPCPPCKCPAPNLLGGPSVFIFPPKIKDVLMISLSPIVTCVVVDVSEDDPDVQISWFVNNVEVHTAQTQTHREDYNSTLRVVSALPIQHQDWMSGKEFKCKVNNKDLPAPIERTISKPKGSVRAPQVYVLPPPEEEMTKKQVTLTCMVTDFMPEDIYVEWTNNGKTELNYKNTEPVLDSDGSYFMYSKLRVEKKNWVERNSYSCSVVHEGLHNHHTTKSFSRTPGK
T1 sequence (Q15116 other isoform, or with tags, fused parts or gaps limits assumed): as above

B1: P1D7V01 (bispecific antibody, human IgG1, kappa)
heavy: not shown
light: DIQMTQSPSSMSASVGDRVTFTCRASQDINTYLSWFQQKPGKSPKTLIYRANRLVSGVPSRFSGSGSGQDYTLTISSLQPEDMATYYCLQYDEFPLTFGAGTKLELKRTVAAPSVFIFPPSDEQLKSGTASVVCLLNNFYPREAKVQWKVDNALQSGNSQESVTEQDSKDSTYSLSSTLTLSKADYEKHKVYACEVTHQGLSSPVTKSFNRGEC
notes: Morrison form IgG-scFv
An OD450 (human PD-1-mFc-biotin [1]) of 0.05 OD, a Kd (PD-1-mFc) of 0.176 nM and a koff (PD-1-mFc) of 7.37e-05 s⁻¹ were found for B1 in this work. For the same binder, the kon (PD-1-mFc) was 419000 M⁻¹ s⁻¹, the Kd (human NT5E(1-552)-his) was 0.229 nM and the koff (human NT5E(1-552)-his) was 4.13e-05 s⁻¹. The kon (human NT5E(1-552)-his) was 181000 M⁻¹ s⁻¹.

B2: P1D7V03 (bispecific antibody, human IgG1, kappa)
heavy: not shown
light: DIQMTQSPSSMSASVGDRVTFTCRASQDINTYLSWFQQKPGKSPKTLIYRANRLVSGVPSRFSGSGSGQDYTLTISSLQPEDMATYYCLQYDEFPLTFGAGTKLELKRTVAAPSVFIFPPSDEQLKSGTASVVCLLNNFYPREAKVQWKVDNALQSGNSQESVTEQDSKDSTYSLSSTLTLSKADYEKHKVYACEVTHQGLSSPVTKSFNRGEC
notes: Morrison form IgG-scFv
An OD450 (human PD-1-mFc-biotin [2]) of 0.048 OD was found for B2 in this work.
